In patent US20250340608A1 (PROTAGONIST THERAPEUTICS, published 2025):
One block for each binder: values may come before it. Numbered stars: 1 amine (or outer) side, 2 acyl side, 3 side chain; on linkers, the order of the positions; unused ones are H or OH. Bridge positions count the residues as written; N and C are the ends. Square brackets hold non-standard residues; d marks the D form. Side chains are listed from the residue outwards. Ends that are not written are not given here. * marks the point of attachment. Ida = iminodiacetic acid, O=C(CN(CC(=O)[*:3])[*:1])[*:2]; γGlu = O=C(O)[C@H](CCC(=O)[*:2])N[*:1]; Palmitoyl = CCCCCCCCCCCCCCCC(=O)*; Myristoyl = CCCCCCCCCCCCCC(=O)*; β3hP = O=C(O)C[C@@H]1CCCN1; Isovaleryl = CC(C)CC(=O)*; Octanoyl = CCCCCCCC(=O)*; Albu = not defined here; dapa = not defined here

Tests used:
[1] = target: T1, human ferroportin (SLC40A1) fused in frame with GFP, stably expressed in HEK293 cells (human, UniProt Q9NP59 1-571); test: cell-based or functional assay
T1 sequence (looked up): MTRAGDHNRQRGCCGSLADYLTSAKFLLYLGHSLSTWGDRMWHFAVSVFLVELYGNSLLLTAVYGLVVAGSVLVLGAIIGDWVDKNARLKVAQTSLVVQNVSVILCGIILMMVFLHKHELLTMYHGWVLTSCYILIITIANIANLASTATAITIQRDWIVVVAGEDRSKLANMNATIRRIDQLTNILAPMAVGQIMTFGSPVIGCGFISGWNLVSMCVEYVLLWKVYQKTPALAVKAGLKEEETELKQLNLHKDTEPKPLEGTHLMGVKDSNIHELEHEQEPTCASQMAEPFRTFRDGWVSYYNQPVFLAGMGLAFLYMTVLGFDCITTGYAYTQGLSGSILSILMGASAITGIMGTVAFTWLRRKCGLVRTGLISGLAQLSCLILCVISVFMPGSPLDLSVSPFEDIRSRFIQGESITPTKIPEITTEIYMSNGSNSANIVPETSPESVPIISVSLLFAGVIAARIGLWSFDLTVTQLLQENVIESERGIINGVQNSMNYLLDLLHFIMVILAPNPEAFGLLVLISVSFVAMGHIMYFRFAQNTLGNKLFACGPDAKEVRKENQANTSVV

[2] = target: T1, human ferroportin (SLC40A1) fused in …; test: cell-based or functional assay; remark: listed apart in the source

- Potency EC50 [1]: 60 nM
B1: Compound 234 (peptide)
peptide: Isovaleryl-ATHFPCIKFGPRSKGWVCK-NH2
modifications: not fully specified (bridges); cysteine pairing not given here

- Potency EC50 [1]: 20 nM
B2: Compound 254 (peptide)
peptide: [Ida]THFPCIKFEPRSKGWVCK(Myristoyl)-NH2
modifications: disulfide 6-18 (inferred)

- Potency EC50 (nM) [1]: > 1000 nM
B3: Compound 267 (peptide)
peptide: Isovaleryl-DTAFPCIKFEPRSKEC-NH2
modifications: disulfide 6-16 (inferred)

- Potency EC50 (nM) [1]: > 1000 nM
B4: Compound 357 (peptide)
peptide: Isovaleryl-DTHFPCIKKEPHSKECK-NH2
modifications: not fully specified (bridges); cysteine pairing not given here

- Potency EC50 [1]: 10 nM
B5: Compound 227 (peptide)
peptide: Isovaleryl-DTHFPCIKFEPK([dapa-Palmitoyl])SKGCK-NH2
modifications: not fully specified (bridges); cysteine pairing not given here; reading uncertain

- Potency EC50 (nM) [1]: > 1000 nM
B6: Compound 287 (peptide)
peptide: H-DTHFPCIEF-NH2

- Potency EC50 [1]: 30 nM
B7: Compound 250 (peptide)
peptide: DTHFPCIKFKPRSKGWVC
modifications: N-terminal isovaleric acid; K10(octanoic acid); C-terminal NH2

- Potency EC50 [1]: 739 nM
B8: Compound 283 (peptide)
peptide: H-DTAFPCIIF-NH2

- % Activity At 1 uM [2]: 0%
- EC50 (nM) (n = 3) [2]: > 1000 nM
B9: Compound 323 (peptide)
peptide: H-DTHFPCIEK-NH2
modifications: also: homodimer via disulfide between Cys6 of each monomer

- Potency EC50 (nM) [1]: > 1000 nM
B10: Compound 280 (peptide)
peptide: H-DTHFACIIF-NH2

- % Activity At 1 uM [2]: 100%
B11: Compound 288 (peptide)
peptide: Isovaleryl-DTHFPCIIF-NH2
SMILES: CC[C@H](C)[C@H](NC(=O)[C@H](CS)NC(=O)[C@@H]1CCCN1C(=O)[C@H](Cc1ccccc1)NC(=O)[C@H](Cc1c[nH]cn1)NC(=O)[C@@H](NC(=O)[C@H](CC(=O)O)NC(=O)CC(C)C)[C@@H](C)O)C(=O)N[C@H](C(=O)N[C@@H](Cc1ccccc1)C(N)=O)[C@@H](C)CC

- Potency EC50 (nM) [1]: > 1000 nM
B12: Compound 279 (peptide)
peptide: H-DTHFPCAIF-NH2

- Potency: % (activity) at 1 µM [1]: 60%
- EC50 (nM) (n = 3) [2]: > 1000 nM
B13: Compound 302 (peptide)
peptide: H-DTKFPCIIF-NH2

- Potency EC50 [1]: > 500 nM
B14: Compound 236 (peptide)
peptide: Isovaleryl-DTHAPCIKFGPRSKGWVCK-NH2
modifications: not fully specified (bridges); cysteine pairing not given here

- Potency EC50 [1]: 6 nM
B15: Compound 358 (peptide)
peptide: DTHFPCIKFKPHSKECK
modifications: not fully specified; N-terminal isovaleric acid; K10(isoglu-Palm); C-terminal NH2

- Potency EC50 [1]: 6 nM
B16: Compound 265 (peptide)
peptide: Isovaleryl-DTHFPCIKFEPHSK(Albu)GCK-NH2
modifications: disulfide 6-16 (inferred); reading uncertain

- EC50 (nM) (n = 3) [2]: > 300 nM
B17: Compound 312 (peptide)
peptide: H-DTHFPCIF-NH2
modifications: also: homodimer via disulfide between Cys6 of each monomer

- EC50 (nM) (n = 3) [2]: 268 nM
B18: Compound 319 (peptide)
peptide: H-DTHFPCIIR-NH2
modifications: also: homodimer via disulfide between Cys6 of each monomer

- Potency EC50 [1]: 10 nM
B19: Compound 230 (peptide)
peptide: Isovaleryl-DTHFPCIKFEPRSKGCK([dapa-Palmitoyl])K-NH2
modifications: not fully specified (bridges); cysteine pairing not given here; reading uncertain

- Potency EC50 [1]: 6 nM
B20: Compound 241 (peptide)
peptide: DTHFPCIKFKPRSKGWECK
modifications: not fully specified; N-terminal isovaleric acid; K10(isoGlu-Palm); C-terminal NH2

- Potency EC50 (nM) [1]: > 1000 nM
B21: Compound 284 (peptide)
peptide: H-ATHFPCIIF-NH2

- Potency EC50 [1]: 50 nM
B22: Compound 237 (peptide)
peptide: Isovaleryl-DTHFPCIKAGPRSKGWVCK-NH2
modifications: not fully specified (bridges); cysteine pairing not given here

- Potency: % (activity) at 1 µM [1]: 64%
- EC50 (nM) (n = 3) [2]: > 300 nM
B23: Compound 297 (peptide)
peptide: H-DTHFPCIKFF-NH2

- Potency EC50 (nM) [1]: > 1000 nM
B24: Compound 278 (peptide)
peptide: H-DTHFPCIIA-NH2

- Potency: % (activity) at 1 µM [1]: 77%
B25: Compound 300 (peptide)
peptide: H-ETHFPCIIF-NH2

- Potency: % (activity) at 1 µM [1]: 55%
- EC50 (nM) (n = 3) [2]: > 1000 nM
B26: Compound 304 (peptide)
peptide: H-DTHFPCIIK-NH2

- Potency EC50 [1]: 8 nM
B27: Compound 242 (peptide)
peptide: Isovaleryl-DTHFPCIKFEPK([γGlu-Palmitoyl])SKGWECK-NH2
modifications: not fully specified (bridges); cysteine pairing not given here

- EC50 (nM) (n = 3) [2]: 130 nM
B28: Compound 314 (peptide)
peptide: H-DTHFPCIKFF-NH2
modifications: also: homodimer via disulfide between Cys6 of each monomer

- Potency: % (activity) at 1 µM [1]: 52%
- EC50 (nM) (n = 3) [2]: > 1000 nM
B29: Compound 293 (peptide)
peptide: H-DTHFPCIF-NH2

- Potency: % (activity) at 1 µM [1]: 89%
B30: Compound 308 (peptide)
peptide: H-DTHFPCILF-NH2

- Potency: % (activity) at 1 µM [1]: 64%
B31: Compound 299 (peptide)
peptide: H-LTHFPCIIF-NH2

- Potency EC50 [1]: 10 nM
B32: Compound 248 (peptide)
peptide: DTHFPCIKFKPRSKGWVC
modifications: N-terminal isovaleric acid; K10(lauric acid); C-terminal NH2

- EC50 (nM) (n = 3) [2]: > 300 nM
B33: Compound 322 (peptide)
peptide: H-DTHFPCILK-NH2
modifications: also: homodimer via disulfide between Cys6 of each monomer

- EC50 (nM) (n = 3) [2]: 137 nM
B34: Compound 317 (peptide)
peptide: H-DTKFPCIIF-NH2
modifications: also: homodimer via disulfide between Cys6 of each monomer

- EC50 (nM) (n = 3) [2]: > 300 nM
B35: Compound 318 (peptide)
peptide: H-DTHFPCIIK-NH2
modifications: also: homodimer via disulfide between Cys6 of each monomer

- % Activity At 1 uM [2]: 100%
B36: Compound 325 (peptide)
peptide: Isovaleryl-DTHFPCIIF-NH2
modifications: also: homodimer via disulfide between Cys6 of each monomer

- Potency EC50 [1]: 7 nM
B37: Compound 228 (peptide)
peptide: Isovaleryl-DTHFPCIKFEPRSK([dapa-Palmitoyl])GCK-NH2
modifications: not fully specified (bridges); cysteine pairing not given here; reading uncertain

- Potency EC50 (nM) [1]: > 1000 nM
B38: Compound 285 (peptide)
peptide: [Ida]THF[β3hP]CIIF-NH2

- Potency: % (activity) at 1 µM [1]: 62%
- EC50 (nM) (n = 3) [2]: > 1000 nM
B39: Compound 305 (peptide)
peptide: H-DTHFPCIIR-NH2

- Potency EC50 [1]: 7 nM
- % Activity At 1 uM [2]: 100%
- EC50 (nM) (n = 3) [2]: 7 nM
B40: Compound 291 (peptide)
peptide: Isovaleryl-DTHFPCIKF-NH2
SMILES: CC[C@H](C)[C@H](NC(=O)[C@H](CS)NC(=O)[C@@H]1CCCN1C(=O)[C@H](Cc1ccccc1)NC(=O)[C@H](Cc1c[nH]cn1)NC(=O)[C@@H](NC(=O)[C@H](CC(=O)O)NC(=O)CC(C)C)[C@@H](C)O)C(=O)N[C@@H](CCCCN)C(=O)N[C@@H](Cc1ccccc1)C(N)=O

- Potency: % (activity) at 1 µM [1]: 75%
B41: Compound 307 (peptide)
peptide: H-DTHFPCIVF-NH2

- Potency EC50 [1]: > 300 nM
B42: Compound 261 (peptide)
peptide: Isovaleryl-HFPCIKFEPRSKGWVCK(Octanoyl)-NH2
modifications: disulfide 4-16 (inferred)

- Potency EC50 [1]: 7 nM
B43: Compound 247 (peptide)
peptide: DTHFPCIKFKPRSKGWVC
modifications: N-terminal isovaleric acid; K10(mysteric acid); C-terminal NH2
